# B1: Oxysterols receptor LXR-alpha (Homo sapiens), Q13133 (parent)
# chain: MSLWLGAPVPDIPPDSAVELWKPGAQDASSQAQGGSSCILREEARMPHSAGGTAGVGLEAAEPTALLTRAEPPSEPTEIRPQKRKKGPAPKMLGNELCSVCGDKASGFHYNVLSCEGCKGFFRRSVIKGAHYICHSGGHCPMDTYMRRKCQECRLRKCRQAGMREECVLSEEQIRLKKLKRQEEEQAHATSLPPRASSPPQILPQLSPEQLGMIEKLVAAQQQCNRRSFSDRLRVTPWPMAPDPHSREARQQRFAHFTELAIVSVQEIVDFAKQLPGFLQLSREDQIALLKTSAIEVMLLETSRRYNPGSESITFLKDFSYNREDFAKAGLQVEFINPIFEFSRAMNELQLNDAEFALLIAISIFSADRPNVQDQLQVERLQHTYVEALHAYVSIHHPHDRLMFPRMLMKLVSLRTLSSVHSEQVFALRLQDKKLPPLLSEIWDVHE
# B2: Retinoic acid receptor RXR-alpha (Homo sapiens), P19793 (parent)
# chain: MDTKHFLPLDFSTQVNSSLTSPTGRGSMAAPSLHPSLGPGIGSPGQLHSPISTLSSPINGMGPPFSVISSPMGPHSMSVPTTPTLGFSTGSPQLSSPMNPVSSSEDIKPPLGLNGVLKVPAHPSGNMASFTKHICAICGDRSSGKHYGVYSCEGCKGFFKRTVRKDLTYTCRDNKDCLIDKRQRNRCQYCRYQKCLAMGMKREAVQEERQRGKDRNENEVESTSSANEDMPVERILEAELAVEPKTETYVEANMGLNPSSPNDPVTNICQAADKQLFTLVEWAKRIPHFSELPLDDQVILLRAGWNELLIASFSHRSIAVKDGILLATGLHVHRNSAHSAGVGAIFDRVLTELVSKMRDMQMDKTELGCLRAIVLFNPDSKGLSNPAEVEALREKVYASLEAYCKHKYPEQPGRFAKLLLRLPALRSIGLKCLEHLFFFKLIGDTPIDTFLMEMLEAPHQMT
# Variants of: B1
# Details: with ncoa1_human NCOA1, Q15788
row,effect of a mutation on the interaction,Variant
1,disrupting interaction,MSLWLGAPVPDIPPDSAVELWKPGAQDASSQAQGGSSCILREEARMPHSAGGTAGVGLEAAEPTALLTRAEPPSEPTEIRPQKRKKGPAPKMLGNELCSVCGDKASGFHYNVLSCEGCKGFFRRSVIKGAHYICHSGGHCPMDTYMRRKCQECRLRKCRQAGMREECVLSEEQIRLKKLKRQEEEQAHATSLPPRASSPPQILPQLSPEQLGMIEKLVAAQQQCNRRSFSDRLRVTPWPMAPDPHSREARQQRFAHFTELAIVSVQEIVDFAKQLPGFLQLSREDQIALLKTSAIEVMLLETSRRYNPGSESITFLKDFSYNREDFAKAGLQVEFINPIFEFSRAMNELQLNDAEFALLIAISIFSADRPNVQDQLQVERLQHTYVEALHAYVSIHHPHDRLMFPRMLMKLVSLRTLSSVHSEQVFALRLQDKKLPPLLSEAWDVHE [I442A]
2,disrupting interaction,MSLWLGAPVPDIPPDSAVELWKPGAQDASSQAQGGSSCILREEARMPHSAGGTAGVGLEAAEPTALLTRAEPPSEPTEIRPQKRKKGPAPKMLGNELCSVCGDKASGFHYNVLSCEGCKGFFRRSVIKGAHYICHSGGHCPMDTYMRRKCQECRLRKCRQAGMREECVLSEEQIRLKKLKRQEEEQAHATSLPPRASSPPQILPQLSPEQLGMIEKLVAAQQQCNRRSFSDRLRVTPWPMAPDPHSREARQQRFAHFTELAIVSVQEIVDFAKQLPGFLQLSREDQIALLKTSAIEVMLLETSRRYNPGSESITFLKDFSYNREDFAKAGLQVEFINPIFEFSRAMNELQLNDAEFALLIAISIFSADRPNVQDQLQVERLQHTYVEALHAYVSIHHPHDRLMFPRMLMKLVSLRTLSSVHSEQVFALRLQDKKLPPLLSAIWDVHE [E441A]

# Variants of: B1
# Details: with ncoa1_human NCOA1, Q15788
# Remark: another data set of the same source
# Target sequence in this assay (Q15788 whole entry): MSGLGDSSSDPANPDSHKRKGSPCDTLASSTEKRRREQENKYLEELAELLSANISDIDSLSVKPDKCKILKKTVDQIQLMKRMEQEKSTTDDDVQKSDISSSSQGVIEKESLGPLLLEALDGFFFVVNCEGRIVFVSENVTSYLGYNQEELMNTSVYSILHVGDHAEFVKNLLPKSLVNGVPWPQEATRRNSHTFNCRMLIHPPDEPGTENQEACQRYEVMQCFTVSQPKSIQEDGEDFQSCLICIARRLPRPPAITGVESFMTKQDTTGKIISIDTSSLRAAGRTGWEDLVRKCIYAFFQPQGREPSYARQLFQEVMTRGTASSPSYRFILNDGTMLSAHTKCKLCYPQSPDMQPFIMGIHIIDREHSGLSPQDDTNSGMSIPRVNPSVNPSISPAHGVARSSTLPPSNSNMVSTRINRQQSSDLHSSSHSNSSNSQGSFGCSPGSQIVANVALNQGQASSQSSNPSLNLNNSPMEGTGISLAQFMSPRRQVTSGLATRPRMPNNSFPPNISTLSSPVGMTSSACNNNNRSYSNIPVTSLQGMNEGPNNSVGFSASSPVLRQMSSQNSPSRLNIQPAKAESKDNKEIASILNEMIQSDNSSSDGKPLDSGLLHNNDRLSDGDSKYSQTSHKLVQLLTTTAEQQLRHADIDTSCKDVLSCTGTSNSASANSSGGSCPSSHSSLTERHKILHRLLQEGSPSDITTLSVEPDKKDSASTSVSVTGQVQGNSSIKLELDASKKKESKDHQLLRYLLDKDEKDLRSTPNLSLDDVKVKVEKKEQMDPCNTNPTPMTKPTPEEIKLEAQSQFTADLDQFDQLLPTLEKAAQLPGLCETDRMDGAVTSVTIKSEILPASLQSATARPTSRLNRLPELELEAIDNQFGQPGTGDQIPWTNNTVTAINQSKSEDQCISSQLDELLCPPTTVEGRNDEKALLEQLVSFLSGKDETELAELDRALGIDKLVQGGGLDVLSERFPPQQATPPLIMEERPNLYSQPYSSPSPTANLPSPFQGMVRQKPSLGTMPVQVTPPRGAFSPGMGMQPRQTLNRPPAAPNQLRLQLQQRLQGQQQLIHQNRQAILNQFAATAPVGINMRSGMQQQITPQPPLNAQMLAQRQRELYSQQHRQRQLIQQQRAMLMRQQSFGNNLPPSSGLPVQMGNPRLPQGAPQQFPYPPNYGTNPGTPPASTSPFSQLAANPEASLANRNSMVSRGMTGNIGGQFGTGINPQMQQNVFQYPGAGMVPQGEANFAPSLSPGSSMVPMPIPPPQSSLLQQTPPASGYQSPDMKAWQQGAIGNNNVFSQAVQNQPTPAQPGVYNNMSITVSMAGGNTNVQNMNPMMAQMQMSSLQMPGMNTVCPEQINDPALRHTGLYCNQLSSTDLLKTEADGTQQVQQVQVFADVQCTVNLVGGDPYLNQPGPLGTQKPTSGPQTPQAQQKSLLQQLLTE
row,effect of a mutation on the interaction,Variant
1,disrupting interaction,MSLWLGAPVPDIPPDSAVELWKPGAQDASSQAQGGSSCILREEARMPHSAGGTAGVGLEAAEPTALLTRAEPPSEPTEIRPQKRKKGPAPKMLGNELCSVCGDKASGFHYNVLSCEGCKGFFRRSVIKGAHYICHSGGHCPMDTYMRRKCQECRLRKCRQAGMREECVLSEEQIRLKKLKRQEEEQAHATSLPPRASSPPQILPQLSPEQLGMIEKLVAAQQQCNRRSFSDRLRVTPWPMAPDPHSREARQQRFAHFTELAIVSVQEIVDFAAQLPGFLQLSREDQIALLKTSAIEVMLLETSRRYNPGSESITFLKDFSYNREDFAKAGLQVEFINPIFEFSRAMNELQLNDAEFALLIAISIFSADRPNVQDQLQVERLQHTYVEALHAYVSIHHPHDRLMFPRMLMKLVSLRTLSSVHSEQVFALRLQDKKLPPLLSEIWDVHE [K273A]

# Variants of: B2
# Details: with ncoa1_human NCOA1, Q15788
# Target sequence in this assay (Q15788 whole entry): as the sequence (Q15788 whole entry) above
row,effect of a mutation on the interaction,Variant
1,disrupting interaction,MDTKHFLPLDFSTQVNSSLTSPTGRGSMAAPSLHPSLGPGIGSPGQLHSPISTLSSPINGMGPPFSVISSPMGPHSMSVPTTPTLGFSTGSPQLSSPMNPVSSSEDIKPPLGLNGVLKVPAHPSGNMASFTKHICAICGDRSSGKHYGVYSCEGCKGFFKRTVRKDLTYTCRDNKDCLIDKRQRNRCQYCRYQKCLAMGMKREAVQEERQRGKDRNENEVESTSSANEDMPVERILEAELAVEPKTETYVEANMGLNPSSPNDPVTNICQAADKQLFTLVEWAARIPHFSELPLDDQVILLRAGWNELLIASFSHRSIAVKDGILLATGLHVHRNSAHSAGVGAIFDRVLTELVSKMRDMQMDKTELGCLRAIVLFNPDSKGLSNPAEVEALREKVYASLEAYCKHKYPEQPGRFAKLLLRLPALRSIGLKCLEHLFFFKLIGDTPIDTFLMEMLEAPHQMT [K284A]

# Reference: IntAct's records for PubMed 20682316
